Measurements reported in patent publication US20180155451A1 (published 2018).
Read-outs that look alike come from different tables or passages of the source.

Experiments:
[1] = target: T1, FcγRIIIa extracellular domain with C-terminal His tag (human, UniProt P08637 17-208); test: SPR (Biacore), ratio of KD values for FcγRIIIa
T1 construct: extracellular domain; also called FcgRIIIa; CD16A
Description: (§1) Analysis of interaction between objective antibody and the FcγR was carried out using Biacore T100 (GE Healthcare). HBS-EP+ (GE Healthcare) was used as the running buffer, and the measurement temperature was set to 25° C. Chips produced by immobilizing the antigen peptide by the amine coupling method to a Series S Sencor Chip CM5 (GE Healthcare), or alternatively, chips produced by allowing preliminarily biotinylated antigen peptides to interact with and immobilize onto a Series S Sensor Chip SA (certified) (GE Healthcare) were used. Antibodies of interest were captured onto an antigen peptide-immobilized chip, and allowed to interact to each FcγR diluted with running buffer. To regenerate and repeatedly use the chip, the antibodies captured on the chip were washed off by reacting 10 mM glycine-HCl, pH 1.5.

[2] = target: T1, FcγRIIIa extracellular domain with …; test: SPR (Biacore), antibody captured, FcγRIIIa as analyte, 1:1 Langmuir kinetic fit
Summary of the method: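 Biacore T100 at 25° C in HBS-EP+; antibodies captured on antigen-peptide chips (amine-coupled CM5 or biotinylated peptide on SA), with FcγR in running buffer flowed over.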

[3] = target: T1, FcγRIIIa extracellular domain with …; test: as above; remark: listed apart in the source
Source text: (§2) First, it was considered which H chain should be introduced with Y296W. GpH7-TA52 (SEQ ID NO: 44) resulting from the introduction of the mutation Y296W into GpH7-TA7 was constructed, and expressed and prepared in combination with GpH7-B78 according to the method described in Reference Example 1. Furthermore, GpH7-TA58 (SEQ ID NO: 45) resulting from the introduction of Y296W into GpH7-B78 was constructed, and expressed and prepared in combination with GpH7-TA22 according to the method described in Reference Example 1. To assess the effects of combinations with Y296W, the prepared antibodies were compared for the FcγRIIIa-binding activity according to the method described in Reference Example 2 (Table 16).
as §1
(§3) The FcγR-binding activity of each antibody was assessed primarily using as an indicator the FcγR-binding activity and dissociation constant for FcγR.

[4] = target: T1, FcγRIIIa extracellular domain with …; test: as above; remark: listed apart in the source
Description: as §1, §3

[5] = target: T1, FcγRIIIa extracellular domain with …; test: SPR (Biacore), ratio of KD values for FcγRIIIa; remark: listed apart in the source
Source text: as §2, §1

[6] = target: T1, FcγRIIIa extracellular domain with …; test: SPR (Biacore), ratio of KD values for FcγRIIIa; remark: listed apart in the source
[7] = target: T2, FcγRIIIa (human, UniProt P08637 17-208); test: SPR (Biacore T100); antibody captured on an antigen peptide chip, FcγRIIIa as analyte; 1:1 Langmuir kinetic fit
T2 construct: extracellular domain; The protein is soluble, His-tagged, and was expressed in FreeStyle293 cells; also called FcgRIIIa; CD16A; not shown: His tag attached to the C terminus
Description: (§4) Then, K334G was also assessed in the same manner. GpH7-TA40 (SEQ ID NO: 47) resulting from the introduction of K334G into GpH7-TA7 was constructed, and expressed and prepared in combination with GpH7-B78 according to the method described in Reference Example 1. Furthermore, GpH7-TA50 (SEQ ID NO: 48) resulting from the introduction of K334G into GpH7-B78 was constructed, and expressed and prepared in combination with GpH7-TA7 according to the method described in Reference Example 1. To assess the effect of combinations with K334G, the prepared antibodies were compared for the FcγRIIIa binding according to the method described in Reference Example 2 (Table 18).
as §1

[8] = target: T2, FcγRIIIa; test: SPR (Biacore); KD of GpH7-TA7/GpH7-B78/GpL16-k0 for FcγRIIIa divided by the KD of this antibody
Description: as §4
as §1, with “To regenerate and repeatedly use the chip, the antibodies captured on the chip were washed off by reacting 10 mM glycine-HCl, pH 1.5.” left out

[9] = target: T1, FcγRIIIa extracellular domain with …; test: SPR (Biacore), ratio of KD values for FcγRIIIa; remark: listed apart in the source
Source text: (§5) Then, GpH7-TA54 (SEQ ID NO: 46) resulting from the introduction of Y296W into GpH7-TA22 was constructed, and expressed and prepared in combination with GpH7-B78 according to the method described in Reference Example 1. Furthermore, GpH7-TA58 (SEQ ID NO: 45) resulting from the introduction of Y296W into GpH7-B78 was constructed, and expressed and prepared in combination with GpH7-TA22 according to the method described in Reference Example 1. To assess the effect of combination with Y296W, the prepared antibodies were compared for the FcγRIIIa-binding activity according to the method described in Reference Example 2 (Table 17).
as §1

[10] = target: T1, FcγRIIIa extracellular domain with …; test: SPR (Biacore), antibody captured, FcγRIIIa as analyte, 1:1 Langmuir kinetic fit; remark: listed apart in the source
Source text: as §5, §1, §3

T1 sequence (P08637 17-208): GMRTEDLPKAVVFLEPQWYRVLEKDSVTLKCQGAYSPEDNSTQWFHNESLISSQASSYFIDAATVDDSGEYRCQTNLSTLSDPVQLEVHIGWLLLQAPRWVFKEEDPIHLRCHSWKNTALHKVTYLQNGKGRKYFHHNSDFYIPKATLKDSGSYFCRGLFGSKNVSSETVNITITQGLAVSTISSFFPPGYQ
T2 sequence (P08637 17-208): as above

| KD ratio (KD of GpH7-TA7/GpH7-B78/GpL16-k0 divided by KD of the antibody) [1] | Kd [2] | Kd [3] | Kd [4] | KD ratio (KD of GpH7-TA7/GpH7-B78/GpL16-k0 divided by KD of the antibody) [5] | KD ratio 1 (KD of GpH7-G1d/GpL16-k0 divided by KD of the antibody) [6] | KD ratio 2 (KD of GpH7-A5/GpH7-B3/GpL16-k0 divided by KD of the antibody) [6] | Kd [7] | KD ratio [8] | KD ratio (KD of GpH7-TA22/GpH7-B78/GpL16-k0 divided by KD of the antibody) [9] | Kd [10] | Binder |
| --- | --- | --- | --- | --- | --- | --- | --- | --- | --- | --- | --- |
| 1 fold | 4.7 nM | 4.1 nM | 4.1 nM | 1 fold | 261 fold | 347 fold | – | – | – | – | GpH7-TA7/GpH7-B78/GpL16-k0 (antibody, human IgG1, kappa, Heterodimerized anti-glypican-3 IgG1 variant: L234Y/G236W/S298A in one H chain, S239D/A330L/I332E in the other) heavy 1: QVQLVQSGAEVKKPGASVTVSCKASGYTFTDYEMHWIRQPPGEGLEWIGAIDPKTGDTAYSESFQDRVTLTADKSTSTAYMELSSLTSEDTAVYYCTRFYSYTYWGQGTLVTVSSASTKGPSVFPLAPSSKSTSGGTAALGCLVKDYFPEPVTVSWNSGALTSGVHTFPAVLQSSGLYSLSSVVTVPSSSLGTQTYICNVNHKPSNTKVDKKVEPKSCDKTHTCPPCPAPEYLWGPSVFLFPPKPKDTLMISRTPEVTCVVVDVSHEDPEVKFNWYVDGVEVHNAKTKPREEQYNATYRVVSVLTVLHQDWLNGKEYKCKVSNKALPAPIEKTISKAKGQPREPQVYTLPPSRKELTKNQVSLTCLVKGFYPSDIAVEWESNGQPENNYKTTPPVLDSDGSFFLYSKLTVDKSRWQQGNVFSCSVMHEALHNRYTQKSLSLSP heavy 2: QVQLVQSGAEVKKPGASVTVSCKASGYTFTDYEMHWIRQPPGEGLEWIGAIDPKTGDTAYSESFQDRVTLTADKSTSTAYMELSSLTSEDTAVYYCTRFYSYTYWGQGTLVTVSSASTKGPSVFPLAPSSKSTSGGTAALGCLVKDYFPEPVTVSWNSGALTSGVHTFPAVLQSSGLYSLSSVVTVPSSSLGTQTYICNVNHKPSNTKVDKKVEPKSCDKTHTCPPCPAPELLGGPDVFLFPPKPKDTLMISRTPEVTCVVVDVSHEDPEVKFNWYVDGVEVHNAKTKPREEQYNSTYRVVSVLTVLHQDWLNGKEYKCKVSNKALPLPEEKTISKAKGQPREPQVYTLPPSRDELTKNQVSLTCLVKGFYPSDIAVEWESNGQPENNYKTTPPVLDSDGSFFLYSKLTVDKSRWQQGNVFSCSVMHEALHNHYTQESLSLSP light: DIVMTQSPLSLPVTPGEPASISCQASESLVHSNRNTYLHWYLQKPGQSPQLLIYKVSNRFSGVPDRFSGSGSGTDFTLKISRVEAEDVGVYYCSQNTHVPPTFGQGTKVEIERTVAAPSVFIFPPSDEQLKSGTASVVCLLNNFYPREAKVQWKVDNALQSGNSQESVTEQDSKDSTYSLSSTLTLSKADYEKHKVYACEVTHQGLSSPVTKSFNRGEC |
| – | – | – | – | – | – | – | 3.4 nM | 1.2 | – | – | GpH7-TA7/GpH7-TA50/GpL16-k0 (antibody, human IgG1, kappa, Heterodimerized anti-glypican-3 IgG1 antibody; also called TA7/TA50) heavy 1: QVQLVQSGAEVKKPGASVTVSCKASGYTFTDYEMHWIRQPPGEGLEWIGAIDPKTGDTAYSESFQDRVTLTADKSTSTAYMELSSLTSEDTAVYYCTRFYSYTYWGQGTLVTVSSASTKGPSVFPLAPSSKSTSGGTAALGCLVKDYFPEPVTVSWNSGALTSGVHTFPAVLQSSGLYSLSSVVTVPSSSLGTQTYICNVNHKPSNTKVDKKVEPKSCDKTHTCPPCPAPEYLWGPSVFLFPPKPKDTLMISRTPEVTCVVVDVSHEDPEVKFNWYVDGVEVHNAKTKPREEQYNATYRVVSVLTVLHQDWLNGKEYKCKVSNKALPAPIEKTISKAKGQPREPQVYTLPPSRKELTKNQVSLTCLVKGFYPSDIAVEWESNGQPENNYKTTPPVLDSDGSFFLYSKLTVDKSRWQQGNVFSCSVMHEALHNRYTQKSLSLSP heavy 2: QVQLVQSGAEVKKPGASVTVSCKASGYTFTDYEMHWIRQPPGEGLEWIGAIDPKTGDTAYSESFQDRVTLTADKSTSTAYMELSSLTSEDTAVYYCTRFYSYTYWGQGTLVTVSSASTKGPSVFPLAPSSKSTSGGTAALGCLVKDYFPEPVTVSWNSGALTSGVHTFPAVLQSSGLYSLSSVVTVPSSSLGTQTYICNVNHKPSNTKVDKKVEPKSCDKTHTCPPCPAPELLGGPDVFLFPPKPKDTLMISRTPEVTCVVVDVSHEDPEVKFNWYVDGVEVHNAKTKPREEQYNSTYRVVSVLTVLHQDWLNGKEYKCKVSNKALPLPEEGTISKAKGQPREPQVYTLPPSRDELTKNQVSLTCLVKGFYPSDIAVEWESNGQPENNYKTTPPVLDSDGSFFLYSKLTVDKSRWQQGNVFSCSVMHEALHNHYTQESLSLSP light: DIVMTQSPLSLPVTPGEPASISCQASESLVHSNRNTYLHWYLQKPGQSPQLLIYKVSNRFSGVPDRFSGSGSGTDFTLKISRVEAEDVGVYYCSQNTHVPPTFGQGTKVEIERTVAAPSVFIFPPSDEQLKSGTASVVCLLNNFYPREAKVQWKVDNALQSGNSQESVTEQDSKDSTYSLSSTLTLSKADYEKHKVYACEVTHQGLSSPVTKSFNRGEC |
| 3.2 fold | – | – | 1.3 nM | – | – | – | – | – | 1 fold | 1.3 nM | GpH7-TA22/GpH7-B78/GpL16-k0 (antibody, human IgG1, kappa, Heterodimerized anti-glypican-3 IgG1 variant) heavy 1: QVQLVQSGAEVKKPGASVTVSCKASGYTFTDYEMHWIRQPPGEGLEWIGAIDPKTGDTAYSESFQDRVTLTADKSTSTAYMELSSLTSEDTAVYYCTRFYSYTYWGQGTLVTVSSASTKGPSVFPLAPSSKSTSGGTAALGCLVKDYFPEPVTVSWNSGALTSGVHTFPAVLQSSGLYSLSSVVTVPSSSLGTQTYICNVNHKPSNTKVDKKVEPKSCDKTHTCPPCPAPEYLWGPDVFLFPPKPKDTLMISRTPEVTCVVVDVSHEDPEVKFNWYVDGVEVHNAKTKPREEQYNATYRVVSVLTVLHQDWLNGKEYKCKVSNKALPAPIEKTISKAKGQPREPQVYTLPPSRKELTKNQVSLTCLVKGFYPSDIAVEWESNGQPENNYKTTPPVLDSDGSFFLYSKLTVDKSRWQQGNVFSCSVMHEALHNRYTQKSLSLSP heavy 2: QVQLVQSGAEVKKPGASVTVSCKASGYTFTDYEMHWIRQPPGEGLEWIGAIDPKTGDTAYSESFQDRVTLTADKSTSTAYMELSSLTSEDTAVYYCTRFYSYTYWGQGTLVTVSSASTKGPSVFPLAPSSKSTSGGTAALGCLVKDYFPEPVTVSWNSGALTSGVHTFPAVLQSSGLYSLSSVVTVPSSSLGTQTYICNVNHKPSNTKVDKKVEPKSCDKTHTCPPCPAPELLGGPDVFLFPPKPKDTLMISRTPEVTCVVVDVSHEDPEVKFNWYVDGVEVHNAKTKPREEQYNSTYRVVSVLTVLHQDWLNGKEYKCKVSNKALPLPEEKTISKAKGQPREPQVYTLPPSRDELTKNQVSLTCLVKGFYPSDIAVEWESNGQPENNYKTTPPVLDSDGSFFLYSKLTVDKSRWQQGNVFSCSVMHEALHNHYTQESLSLSP light: DIVMTQSPLSLPVTPGEPASISCQASESLVHSNRNTYLHWYLQKPGQSPQLLIYKVSNRFSGVPDRFSGSGSGTDFTLKISRVEAEDVGVYYCSQNTHVPPTFGQGTKVEIERTVAAPSVFIFPPSDEQLKSGTASVVCLLNNFYPREAKVQWKVDNALQSGNSQESVTEQDSKDSTYSLSSTLTLSKADYEKHKVYACEVTHQGLSSPVTKSFNRGEC |
